B1: Azoarcus group I ribozyme (parent)
chain: GUGCCUUGCGCCGGGAAACCACGCAAGGGAUGGUGUCAAAUUCGGCGAAACCUAAGCGCCCGCCCGGGCGUAUGGCAACGCCGAGCCAAGCUUCGGCGCCUGCGCCGAUGAAGGUGUAGAGACUAGACGGCACCCACCUAAGGCAAACGCUAUGGUGAAGGCAUAGUCCAGGGAGUGGCGAAAGUCACACAAACCGG

Variants of: B1
Assay: reverse-splicing fitness (ratio to wild type); higher = more active; in vitro selection; Mg2+ level not given
Procedure, shortened: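 An in vitro group I ribozyme library with randomized positions was T7-transcribed and gel-purified. In triplicate, 10 pmol RNA in EPPS pH 7.5 was reacted with 50 pmoles of a 30-nt RNA substrate for 1 h at 37 °C across several added MgCl2 levels (1–48 mM), then stopped with EDTA. Products were reverse transcribed from a substrate-complementary primer, PCR-amplified and sequenced (HiSeq 4000). Fitness is a variant's read proportion after selection over that before, normalised to wild type.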
Variant C82G A120G A145C C150A U176A has a reverse-splicing fitness of 0.0102. C82G A120G A145C C150A U176G gave a reverse-splicing fitness of 0.00453. Work on C82G A120G A145C C150A U176C yielded a reverse-splicing fitness of 0.00828. Variant C82G A120C C150A C169U U176C has a reverse-splicing fitness of 0.0182. C82G A120C C150A C169U U176G gave a reverse-splicing fitness of 0.00663. In the case of C82G A120C C150A C169U U176A, the reverse-splicing fitness is reported as 0.0156. In the case of C82G A120C A145U C150U C169A U176G, the reverse-splicing fitness is reported as 0.00538. In the case of C82G A120C A145U C150U C169A U176C, the reverse-splicing fitness is reported as 0.00984. C82G A120C A145U C150U C169A U176A gave a reverse-splicing fitness of 0.015. Variant C82G A111U C169A has a reverse-splicing fitness of 0.00938. Work on C82G A111U C169G yielded a reverse-splicing fitness of 0.00946. Work on C82G A111U C169U yielded a reverse-splicing fitness of 0.0134. In the case of C82G A120C A145C C150U U176C, the reverse-splicing fitness is reported as 0.0273. Variant C82G A120C A145C C150U U176A has a reverse-splicing fitness of 0.0221. C82G A120C A145C C150U U176G gave a reverse-splicing fitness of 0.00925. In the case of C82G A120C U176C, the reverse-splicing fitness is reported as 0.107. For C82G A120C U176G, the reverse-splicing fitness was 0.0151. Work on C82G A120C U176A yielded a reverse-splicing fitness of 0.0764. C82G A120C C150U showed a reverse-splicing fitness of 0.108. Work on C82G A120C C150G yielded a reverse-splicing fitness of 0.0159. C82G A120C C150A gave a reverse-splicing fitness of 0.0228. C82G A120C A145G C150U U176A gave a reverse-splicing fitness of 0.0566. In the case of C82G A120C A145G C150U U176G, the reverse-splicing fitness is reported as 0.0154. Variant C82G A120C A145G C150U U176C has a reverse-splicing fitness of 0.0797. With C82G A120G A145C C150A C169A U176A the reverse-splicing fitness was 0.0119. For C82G A120G A145C C150A C169A U176G, the reverse-splicing fitness was 0.00483. With C82G A120G A145C C150A C169A U176C the reverse-splicing fitness was 0.00516. Work on C82G A120C A145U C150U C169G U176G yielded a reverse-splicing fitness of 0.0044. C82G A120C A145U C150U C169G U176C gave a reverse-splicing fitness of 0.015. C82G A120C A145U C150U C169G U176A showed a reverse-splicing fitness of 0.0139. In the case of C82G A120C A145C C150U C169G U176A, the reverse-splicing fitness is reported as 0.0259. With C82G A120C A145C C150U C169G U176G the reverse-splicing fitness was 0.00532. Variant C82G A120C A145C C150U C169G U176C has a reverse-splicing fitness of 0.013. With C82G A120C A145U C169A U176G the reverse-splicing fitness was 0.00379. In the case of C82G A120C A145U C169A U176A, the reverse-splicing fitness is reported as 0.0121. Variant C82G A120C A145U C169A U176C has a reverse-splicing fitness of 0.00989. C82G A120C C150A C169A U176G gave a reverse-splicing fitness of 0.00601. With C82G A120C C150A C169A U176C the reverse-splicing fitness was 0.0213. Variant C82G A120C C150A C169A U176A has a reverse-splicing fitness of 0.0216. C82G A120C A145C C169G showed a reverse-splicing fitness of 0.00864. Variant C82G A120C A145C C169A has a reverse-splicing fitness of 0.00704. With C82G A120C A145C C169U the reverse-splicing fitness was 0.0218. C82G A120G A145C C150U C169A gave a reverse-splicing fitness of 0.0116. Variant C82G A120G A145C C150U C169G has a reverse-splicing fitness of 0.0163. C82G A120G A145C C150U C169U showed a reverse-splicing fitness of 0.0103. C82G A120C C150A C169G gave a reverse-splicing fitness of 0.00837. With C82G A120C C150A C169U the reverse-splicing fitness was 0.0118. C82G A120C C150A C169A gave a reverse-splicing fitness of 0.0151. C82G A120C A145G C150U C169A U176A showed a reverse-splicing fitness of 0.0194. C82G A120C A145G C150U C169A U176C gave a reverse-splicing fitness of 0.0158. Work on C82G A120C A145G C150U C169A U176G yielded a reverse-splicing fitness of 0.0065. With C82G A120C A145G C150G C169U U176C the reverse-splicing fitness was 0.0134. With C82G A120C A145G C150G C169U U176A the reverse-splicing fitness was 0.0128. C82G A120C A145G C150G C169U U176G gave a reverse-splicing fitness of 0.00789. C82G A120C A145C C150U showed a reverse-splicing fitness of 0.0403. Variant C82G A120C A145C C150A has a reverse-splicing fitness of 0.0129. Work on C82G A120C A145C C150G yielded a reverse-splicing fitness of 0.0227. C82G A120C A145C C150A U176C showed a reverse-splicing fitness of 0.0118. C82G A120C A145C C150A U176A gave a reverse-splicing fitness of 0.012. With C82G A120C A145C C150A U176G the reverse-splicing fitness was 0.0054. C82G A120C A145G C150U gave a reverse-splicing fitness of 0.163. For C82G A120C A145G C150A, the reverse-splicing fitness was 0.0297. In the case of C82G A120C A145G C150G, the reverse-splicing fitness is reported as 0.0242. Variant C82G A111U C169A U176G has a reverse-splicing fitness of 0.00627. Work on C82G A111U C169A U176A yielded a reverse-splicing fitness of 0.0152. For C82G A111U C169A U176C, the reverse-splicing fitness was 0.0203. C82G A120C A145C C150G C169G U176G gave a reverse-splicing fitness of 0.00536. Variant C82G A120C A145C C150G C169G U176A has a reverse-splicing fitness of 0.0101. C82G A120C A145C C150G C169G U176C gave a reverse-splicing fitness of 0.00954. For C82G A120C C150U C169A U176C, the reverse-splicing fitness was 0.0133. With C82G A120C C150U C169A U176G the reverse-splicing fitness was 0.00618. For C82G A120C C150U C169A U176A, the reverse-splicing fitness was 0.0177. With C82G A120C C150U C169G U176G the reverse-splicing fitness was 0.0048. With C82G A120C C150U C169G U176C the reverse-splicing fitness was 0.0162. With C82G A120C C150U C169G U176A the reverse-splicing fitness was 0.0141. With C82G A120G A145C C150G C169A U176A the reverse-splicing fitness was 0.00893. For C82G A120G A145C C150G C169A U176C, the reverse-splicing fitness was 0.00681. C82G A120G A145C C150G C169A U176G gave a reverse-splicing fitness of 0.00487. Work on C82G A120C A145G C150A C169U yielded a reverse-splicing fitness of 0.0126. C82G A120C A145G C150A C169G gave a reverse-splicing fitness of 0.00895. C82G A120C A145G C150A C169A showed a reverse-splicing fitness of 0.0104. Work on C82G A120C A145U yielded a reverse-splicing fitness of 0.21. In the case of C82G A120C A145C, the reverse-splicing fitness is reported as 0.201.

Source: the RNAGym collection of RNA variant scans (doi:10.1093/molbev/msab373)
